According to the supplement of paper PMC10724198:
± gives the standard deviation of the averaged measurements.

Columns and labels:
Saccharomyces cerevisiae [1] = assay: protein stability index of tFT-peptide fusion (C-terminal peptide) (PSI (0-1 scale)); higher = more stable (slower turnover)
Description: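 MPS profiling in S. cerevisiae of the tFT-X12 degron library: putative degron peptides plus stable controls, 12 aa, fused to the C-terminus of a sfGFP-mCherry timer. Cells are FACS-sorted into 8 mCherry/sfGFP bins and deep-sequenced. PSI runs from 0 (unstable) to 1 (stable). Backgrounds are wild type, das1Δ and doa10Δ at 30 °C, and wild type, das1Δ, cdc34-1 and cdc53-1 at 37 °C; 2-3 technical replicates each.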

Saccharomyces cerevisiae [2] = assay: as above; conditions: genetic background: wild type; temperature: 30 C
[3] = genetic background: cdc34-1, temperature: 37 C
[4] = genetic background: cdc53-1, temperature: 37 C
[5] = genetic background: das1 deletion, temperature: 30 C
[6] = genetic background: das1 deletion, temperature: 37 C
[7] = genetic background: doa10 deletion, temperature: 30 C
[8] = genetic background: wild type, temperature: 30 C
[9] = genetic background: wild type, temperature: 37 C
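Further: PSI is a weighted mean of sequencing reads over stability bins, variants kept only with over 10 reads, mCherry proximal and sfGFP distal, peptide attached via GGGS linker.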

Row | Sequence | protein stability index (Saccharomyces cerevisiae [1]; [3]) | protein stability index (Saccharomyces cerevisiae [1]; [4]) | protein stability index (Saccharomyces cerevisiae [1]; [5]) | protein stability index (Saccharomyces cerevisiae [1]; [6]) | protein stability index (Saccharomyces cerevisiae [1]; [7]) | protein stability index (Saccharomyces cerevisiae [1]; [8]) | protein stability index (Saccharomyces cerevisiae [1]; [9]) | protein stability index (Saccharomyces cerevisiae [2])
1 | WFFPVSPPVMAS | 0.181 ± 0.027 | 0.1945 ± 0.00051 | 0.202 ± 0.032 | 0.3 ± 0.013 | 0.175 ± 0.004 | 0.211 ± 0.026 | 0.265 ± 0.0075 | 0.288 ± 0.013
2 | WFLFVLCAWGFF | 0.295 ± 0.026 | 0.339 ± 0.0033 | 0.263 ± 0.013 | 0.374 ± 0.039 | 0.263 ± 0.014 | 0.241 ± 0.012 | 0.3042 ± 0.00084 | 0.135 ± 0.0012
3 | WFLLSLSSFVSS | 0.427 ± 0.03 | 0.415 ± 0.11 | 0.363 ± 0.023 | 0.469 ± 0.0061 | 0.358 ± 0.037 | 0.351 ± 0.0038 | 0.4555 ± 0.00088 | 0.427 ± 0.015
4 | WFSMSRLWVFYS | 0.415 ± 0.043 | 0.637 ± 0.018 | 0.619 ± 0.028 | 0.729 ± 0.045 | 0.1047 ± 0.00079 | 0.0847 ± 0.027 | 0.106 ± 0.024 | 0.217 ± 0.082
5 | WFSRCVSLGLCW | 0.2808 ± 0.0017 | 0.3093 ± 0.0024 | 0.29 ± 0.019 | 0.398 ± 0.018 | 0.274 ± 0.012 | 0.302 ± 0.029 | 0.363 ± 0.017 | 0.4176 ± 0.0036
6 | WFSVRQLVFVSG | 0.119 ± 0.011 | 0.146 ± 0.018 | 0.163 ± 0.028 | 0.236 ± 0.0094 | 0.124 ± 0.0015 | 0.163 ± 0.019 | 0.218 ± 0.0069 | 0.218 ± 0.014
7 | WISVRIFISCFF | 0.177 ± 0.0059 | 0.269 ± 0.02 | 0.191 ± 0.024 | 0.318 ± 0.0052 | 0.192 ± 0.0026 | 0.191 ± 0.035 | 0.271 ± 0.0047 | 0.267 ± 0.022
8 | WLCLAVLVRFPC | 0.273 ± 0.0054 | 0.274 ± 0.018 | 0.25 ± 0.043 | 0.3989 ± 0.0019 | 0.2621 ± 0.0017 | 0.248 ± 0.017 | 0.369 ± 0.018 | 0.3532 ± 0.0026
9 | WQIGIYILQGLA | 0.271 ± 0.03 | 0.316 ± 0.0064 | 0.242 ± 0.04 | 0.389 ± 0.018 | 0.146 ± 0.011 | 0.163 ± 0.049 | 0.262 ± 0.015 | 0.256 ± 0.023
10 | WSCVGLWGRFCC | 0.663 ± 0.033 | 0.748 ± 0.018 | 0.637 ± 0.011 | 0.76 ± 0.013 | 0.267 ± 0.011 | 0.299 ± 0.0093 | 0.57 ± 0.0094 | 0.448 ± 0.036
11 | WSISFGLLVCWV | 0.27 ± 0.045 | 0.322 ± 0.0049 | 0.199 ± 0.019 | 0.42 ± 0.013 | 0.154 ± 0.012 | 0.191 ± 0.016 | 0.379 ± 0.066 | 0.233 ± 0.039
